The supplement of paper PMC10065799, “High-throughput profiling of sequence recognition by tyrosine kinases and SH2 domains using bacterial peptide display” (eLife, 2023)

Key:
[1] = molecular target: Grb2 SH2 (UniProt P62993); assay: SH2 binding enrichment of the phosphorylated peptide, bacterial display (enrichment ratio); higher = better substrate or ligand; peptides without Tyr show the background
[2] = molecular target: SHP2-C SH2; assay: as above
[3] = molecular target: c-Src SH2; assay: as above
[4] = molecular target: EPHB1 (UniProt P54762); assay: phosphorylation enrichment, bacterial display (enrichment ratio); higher = better substrate or ligand; peptides without Tyr show the background
Chain of EPHB1 (P54762 whole entry, looked up): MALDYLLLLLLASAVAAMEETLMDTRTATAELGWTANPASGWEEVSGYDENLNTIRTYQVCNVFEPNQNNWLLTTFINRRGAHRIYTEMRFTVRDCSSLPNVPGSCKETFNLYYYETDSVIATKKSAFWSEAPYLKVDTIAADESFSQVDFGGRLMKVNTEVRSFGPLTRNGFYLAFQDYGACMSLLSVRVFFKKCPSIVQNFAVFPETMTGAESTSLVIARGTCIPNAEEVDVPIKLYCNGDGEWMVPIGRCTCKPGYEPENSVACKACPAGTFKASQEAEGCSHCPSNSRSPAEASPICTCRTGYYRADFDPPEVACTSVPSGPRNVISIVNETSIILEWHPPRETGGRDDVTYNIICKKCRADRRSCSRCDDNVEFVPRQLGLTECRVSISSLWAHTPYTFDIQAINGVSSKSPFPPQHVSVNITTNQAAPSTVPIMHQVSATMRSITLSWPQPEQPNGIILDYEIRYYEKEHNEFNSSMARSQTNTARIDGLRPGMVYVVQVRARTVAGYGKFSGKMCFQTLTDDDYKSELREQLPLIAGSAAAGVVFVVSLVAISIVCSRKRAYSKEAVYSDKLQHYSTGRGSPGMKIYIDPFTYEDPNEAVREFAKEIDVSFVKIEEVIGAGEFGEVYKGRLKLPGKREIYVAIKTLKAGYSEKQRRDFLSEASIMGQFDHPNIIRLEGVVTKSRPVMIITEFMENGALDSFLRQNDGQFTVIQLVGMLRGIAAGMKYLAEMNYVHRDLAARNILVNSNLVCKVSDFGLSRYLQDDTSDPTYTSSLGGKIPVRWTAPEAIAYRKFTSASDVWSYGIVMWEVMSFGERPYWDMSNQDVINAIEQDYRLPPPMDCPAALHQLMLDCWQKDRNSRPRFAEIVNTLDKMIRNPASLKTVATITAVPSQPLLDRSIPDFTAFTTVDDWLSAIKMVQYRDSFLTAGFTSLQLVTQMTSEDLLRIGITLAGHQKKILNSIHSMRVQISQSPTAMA

[5] = molecular target: Hck (UniProt P08631); assay: as above
[6] = molecular target: FGFR3 (UniProt P22607); assay: as above
Chain of FGFR3 (P22607 whole entry, looked up): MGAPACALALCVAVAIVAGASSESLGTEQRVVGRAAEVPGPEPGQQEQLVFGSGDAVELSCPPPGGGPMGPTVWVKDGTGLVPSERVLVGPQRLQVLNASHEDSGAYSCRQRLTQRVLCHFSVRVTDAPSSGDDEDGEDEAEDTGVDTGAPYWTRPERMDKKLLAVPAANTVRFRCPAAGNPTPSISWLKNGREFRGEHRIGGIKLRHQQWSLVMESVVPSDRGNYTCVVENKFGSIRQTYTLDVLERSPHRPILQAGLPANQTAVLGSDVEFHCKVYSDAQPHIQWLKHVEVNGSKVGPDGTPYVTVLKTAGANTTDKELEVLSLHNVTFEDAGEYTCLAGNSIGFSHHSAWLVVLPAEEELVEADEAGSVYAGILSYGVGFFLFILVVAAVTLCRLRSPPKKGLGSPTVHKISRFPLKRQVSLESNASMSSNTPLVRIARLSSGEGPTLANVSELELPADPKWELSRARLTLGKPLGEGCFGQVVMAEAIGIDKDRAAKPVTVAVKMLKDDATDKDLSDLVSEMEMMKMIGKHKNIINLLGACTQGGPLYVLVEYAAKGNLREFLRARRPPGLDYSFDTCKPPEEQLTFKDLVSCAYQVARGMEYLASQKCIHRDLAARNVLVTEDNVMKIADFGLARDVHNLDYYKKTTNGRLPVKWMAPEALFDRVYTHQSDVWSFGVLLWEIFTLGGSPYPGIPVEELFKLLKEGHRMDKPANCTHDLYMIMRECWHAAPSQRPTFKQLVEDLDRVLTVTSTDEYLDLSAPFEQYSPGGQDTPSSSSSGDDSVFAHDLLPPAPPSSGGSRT

[7] = molecular target: EPHB2 (UniProt P29323); assay: as above
Chain of EPHB2 (P29323 whole entry, looked up): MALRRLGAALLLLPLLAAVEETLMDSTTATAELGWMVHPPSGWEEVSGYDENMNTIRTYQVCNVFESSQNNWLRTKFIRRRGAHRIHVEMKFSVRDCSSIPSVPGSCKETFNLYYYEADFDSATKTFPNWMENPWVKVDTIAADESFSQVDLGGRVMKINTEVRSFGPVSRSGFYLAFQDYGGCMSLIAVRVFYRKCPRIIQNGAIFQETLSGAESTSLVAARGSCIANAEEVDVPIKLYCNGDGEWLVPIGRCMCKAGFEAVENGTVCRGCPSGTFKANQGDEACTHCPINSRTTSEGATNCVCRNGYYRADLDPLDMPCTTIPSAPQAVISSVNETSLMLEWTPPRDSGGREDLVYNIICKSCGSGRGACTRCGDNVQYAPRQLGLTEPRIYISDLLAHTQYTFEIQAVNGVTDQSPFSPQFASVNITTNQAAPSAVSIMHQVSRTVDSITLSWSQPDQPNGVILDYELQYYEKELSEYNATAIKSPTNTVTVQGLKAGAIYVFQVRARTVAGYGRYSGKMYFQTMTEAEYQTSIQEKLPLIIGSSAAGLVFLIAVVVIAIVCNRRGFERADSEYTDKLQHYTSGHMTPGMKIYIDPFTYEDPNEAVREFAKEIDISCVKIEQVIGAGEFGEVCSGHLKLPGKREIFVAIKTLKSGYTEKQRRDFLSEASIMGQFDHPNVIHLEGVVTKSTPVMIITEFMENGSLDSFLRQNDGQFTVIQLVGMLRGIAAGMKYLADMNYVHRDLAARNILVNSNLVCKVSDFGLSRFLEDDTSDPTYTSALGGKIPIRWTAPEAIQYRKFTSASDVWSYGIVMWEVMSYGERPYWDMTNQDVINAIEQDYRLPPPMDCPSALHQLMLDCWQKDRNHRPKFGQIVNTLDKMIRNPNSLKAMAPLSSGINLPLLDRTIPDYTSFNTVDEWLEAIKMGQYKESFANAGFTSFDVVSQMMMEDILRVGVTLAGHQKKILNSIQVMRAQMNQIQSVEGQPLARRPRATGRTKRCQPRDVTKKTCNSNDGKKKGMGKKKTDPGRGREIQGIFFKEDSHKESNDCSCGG

[8] = tested on: c-Src; assay: as above
[9] = molecular target: FGFR1 (UniProt P11362); assay: as above
Chain of FGFR1 (P11362 whole entry, looked up): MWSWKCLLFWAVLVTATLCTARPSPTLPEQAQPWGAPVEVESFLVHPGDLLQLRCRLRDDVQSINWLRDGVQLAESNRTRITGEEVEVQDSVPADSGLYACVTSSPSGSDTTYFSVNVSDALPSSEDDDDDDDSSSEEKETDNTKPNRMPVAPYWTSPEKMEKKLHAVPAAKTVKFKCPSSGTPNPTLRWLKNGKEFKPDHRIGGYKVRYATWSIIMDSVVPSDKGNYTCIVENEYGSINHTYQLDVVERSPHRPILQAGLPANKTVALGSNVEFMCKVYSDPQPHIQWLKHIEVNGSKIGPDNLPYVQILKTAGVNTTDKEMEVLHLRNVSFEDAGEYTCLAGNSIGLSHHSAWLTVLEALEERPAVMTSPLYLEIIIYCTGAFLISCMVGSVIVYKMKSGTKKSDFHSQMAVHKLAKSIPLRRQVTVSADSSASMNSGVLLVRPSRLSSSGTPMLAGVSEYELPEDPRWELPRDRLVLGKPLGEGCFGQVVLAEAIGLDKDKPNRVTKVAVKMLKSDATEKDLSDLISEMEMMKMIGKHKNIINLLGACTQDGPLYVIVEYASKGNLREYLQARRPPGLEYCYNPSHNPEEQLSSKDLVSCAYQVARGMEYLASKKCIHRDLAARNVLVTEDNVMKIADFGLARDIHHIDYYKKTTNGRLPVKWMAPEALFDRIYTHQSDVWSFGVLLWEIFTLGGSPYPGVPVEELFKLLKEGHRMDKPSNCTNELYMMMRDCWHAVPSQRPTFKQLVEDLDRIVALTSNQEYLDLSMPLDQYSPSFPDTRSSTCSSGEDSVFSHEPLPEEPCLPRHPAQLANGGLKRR

[10] = molecular target: Jak2 (UniProt O60674); assay: as above
Chain of Jak2 (O60674 whole entry, looked up): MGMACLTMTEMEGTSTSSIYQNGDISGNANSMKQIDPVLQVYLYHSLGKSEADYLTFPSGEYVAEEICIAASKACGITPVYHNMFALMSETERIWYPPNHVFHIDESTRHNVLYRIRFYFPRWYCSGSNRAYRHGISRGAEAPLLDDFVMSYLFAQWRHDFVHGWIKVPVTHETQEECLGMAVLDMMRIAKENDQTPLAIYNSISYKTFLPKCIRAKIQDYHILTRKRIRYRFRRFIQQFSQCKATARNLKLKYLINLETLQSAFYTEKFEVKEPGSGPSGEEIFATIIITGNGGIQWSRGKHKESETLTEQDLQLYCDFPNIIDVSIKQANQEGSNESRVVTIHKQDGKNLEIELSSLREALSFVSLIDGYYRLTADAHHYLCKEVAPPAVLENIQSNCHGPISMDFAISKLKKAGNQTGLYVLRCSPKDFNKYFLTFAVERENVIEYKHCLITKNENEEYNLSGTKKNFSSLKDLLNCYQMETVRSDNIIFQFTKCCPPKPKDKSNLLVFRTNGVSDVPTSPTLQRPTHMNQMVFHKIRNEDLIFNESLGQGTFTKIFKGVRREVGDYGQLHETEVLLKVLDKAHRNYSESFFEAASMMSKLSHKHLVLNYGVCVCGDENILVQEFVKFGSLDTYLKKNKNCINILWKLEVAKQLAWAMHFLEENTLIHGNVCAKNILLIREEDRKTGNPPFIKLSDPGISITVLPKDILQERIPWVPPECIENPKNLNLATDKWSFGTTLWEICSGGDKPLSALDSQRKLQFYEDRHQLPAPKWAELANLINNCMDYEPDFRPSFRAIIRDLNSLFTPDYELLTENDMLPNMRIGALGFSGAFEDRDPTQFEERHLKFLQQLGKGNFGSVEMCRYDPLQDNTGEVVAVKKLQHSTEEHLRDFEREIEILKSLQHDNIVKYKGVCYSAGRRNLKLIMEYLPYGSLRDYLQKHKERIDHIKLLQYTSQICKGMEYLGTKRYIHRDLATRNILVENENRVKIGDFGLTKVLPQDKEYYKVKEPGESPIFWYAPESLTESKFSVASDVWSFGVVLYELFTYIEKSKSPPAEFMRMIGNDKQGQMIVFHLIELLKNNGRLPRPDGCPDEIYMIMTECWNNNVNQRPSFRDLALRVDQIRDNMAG

[11] = molecular target: Fyn (UniProt P06241); assay: as above
[12] = tested on: Fer (mouse); assay: as above
[13] = tested on: AncSZ; assay: as above
[14] = tested on: c-Abl (mouse); assay: as above
[15] = molecular target: Fes (UniProt P07332); assay: as above
[16] = molecular target: MERTK (UniProt Q12866); assay: as above
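Wherever SH2 binding enrichment of the phosphorylated peptide, bacterial display is given: peptide library displayed on the E. coli surface as eCPX fusions, selected cells deep-sequenced, score is each peptide's frequency after selection divided by its frequency in the input.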
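Wherever phosphorylation enrichment, bacterial display is given: 11-residue human phosphosite peptides and single-mutation variants displayed on the E. coli surface, counted by deep sequencing, each peptide's frequency after selection divided by its frequency in the unselected input library; frequency after pTyr selection over input frequency; kinase dosed for 20-30% of maximal phosphorylation in three min.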

SH2 binding enrichment [1]	SH2 binding enrichment [2]	SH2 binding enrichment [3]	Sequence	phosphorylation enrichment [4]	phosphorylation enrichment [5]	phosphorylation enrichment [6]	phosphorylation enrichment [7]	phosphorylation enrichment [8]	phosphorylation enrichment [9]	phosphorylation enrichment [10]	phosphorylation enrichment [11]	phosphorylation enrichment [12]	phosphorylation enrichment [13]	phosphorylation enrichment [14]	phosphorylation enrichment [15]	phosphorylation enrichment [16]
0.9	0.787	0.484	LLANAYIYVVQ [L1CAM_Y418]	0.847	0.687	1.01	0.69	0.602	0.679	1.43	0.645	0.588	1.29	0.983	1.52	0.516
0.801	0.464	3.24	LLEGKYEWQEV [CDKN1B_Y74_P69L]	1.45	0.889	1.48	1.43	1.01	1.14	3	0.908	1.75	2	1.79	2.74	0.964
1.47	1.77	0.857	LLLLFCVVRFC [MPZ_Y177_Y177C_YF]	0.803	0.75	1.56	0.56	0.719	0.973	0.607	0.712	1.16	1.01	0.933	1.12	0.718
0.754	0.58	7.11	LNCAGYCDALE [MTUS1_Y151]	0.621	0.511	0.906	0.578	0.683	0.55	1.32	0.514	0.599	1.19	0.917	1.3	0.617
0.867	0.743	0.551	LNCIYYKDQTG [RS1_Y166_W163C]	3.64	4.01	4.51	1.15	1.4	2.69	1.42	2.93	1.55	3.56	1.08	3.26	1.78
0.78	0.686	0.618	LNGDRYFKGIV [DCX_Y64_R59L]	2.3	4.24	3.96	3.35	0.626	4.77	0.942	2.87	3.94	4.62	0.703	4.84	1.37
1.23	1.78	1.79	LNPFIYSLRNW [OR1A2_Y288]	1.52	6.49	1.1	0.819	8.69	0.644	1.34	7.05	2.28	2.05	4.13	1.73	4.23
0.995	0.731	0.473	LPKVSYMKAID [GLRA1_Y307_V308M]	0.632	0.406	0.77	0.711	0.574	0.481	0.707	0.694	0.65	0.941	0.967	0.911	0.484
0.965	1.31	1.72	LPSKDYAEVRR [HP_Y272_G276R]	1.48	0.7	0.865	0.638	0.832	0.712	0.539	0.559	0.419	0.598	1.75	0.832	0.361
0.689	0.947	1.78	LQFRNYQQLFD [MAN2A1_Y442_K440R]	1.42	0.771	1.41	0.928	1.03	0.857	2.42	1.08	0.65	2.02	1.3	2.25	0.789
0.696	0.558	0.543	LQRVQCDLQKA [DSP_Y1512_Y1512C]	1.12	0.812	1.31	0.827	0.709	1.06	1.43	0.811	0.809	1.14	0.987	1.16	0.762
0.901	1.03	0.499	LQTFRYHGHSM [PDHA1_Y289_YF]	0.843	0.616	0.999	0.61	0.761	0.68	0.876	0.948	0.592	0.664	0.775	1.06	0.716
0.611	0.779	0.509	LRAGVYPEKDQ [DNM2_Y626]	0.443	0.662	0.633	0.498	0.507	0.467	0.773	0.454	0.39	0.754	0.803	0.971	0.43
0.874	11.9	0.775	LRNIDYYRLDG [ATRX_Y2083]	1.07	1.16	8.11	0.776	3.35	13.1	6.17	3.96	0.499	1.3	0.815	1.58	0.851
0.881	1.18	0.841	LRVHSYKSMQH [DRC7_Y516_P521H]	0.911	0.634	0.69	0.772	1.06	0.533	1.42	0.954	0.949	1.4	1.13	0.883	0.896
1.14	0.888	0.594	LSAPCYLNRIS [HEXA_Y421_W420C]	0.447	0.507	0.535	0.552	0.422	0.495	0.634	0.377	0.424	0.825	0.631	0.82	0.382

SH2 binding enrichment [1]	SH2 binding enrichment [2]	SH2 binding enrichment [3]	Sequence	phosphorylation enrichment [4]	phosphorylation enrichment [5]	phosphorylation enrichment [6]	phosphorylation enrichment [7]	phosphorylation enrichment [8]	phosphorylation enrichment [9]	phosphorylation enrichment [10]	phosphorylation enrichment [11]	phosphorylation enrichment [12]	phosphorylation enrichment [13]	phosphorylation enrichment [14]	phosphorylation enrichment [15]	phosphorylation enrichment [16]
0.708	0.49	0.454	LSIQCYLRALD [HMGCS2_Y262]	1.25	1.12	1.91	1.31	1.01	0.672	2.35	0.825	0.822	2.06	1.98	2.81	0.802
1.23	1.1	0.797	LSIWPYLQKID [MFSD8_Y63_M58L]	0.929	0.566	0.85	0.759	0.686	0.584	1.43	0.501	0.577	1.16	0.6	1.37	0.6
0.897	0.706	0.48	LSNFNYEQRGA [API5_Y497_G493S]	0.796	0.509	1.02	1.15	1.14	0.918	1.41	1.14	0.651	1.21	1.11	1.51	0.796
0.678	0.563	0.421	LSVEIHDRREF [ITGB7_Y753_Y753H_YF]	0.88	0.814	1.17	1.1	0.795	0.87	1.3	0.65	0.795	1.63	0.86	1.59	0.558
0.746	0.654	0.596	LTERGYSFTTT [ACTB_Y198]	0.472	0.432	0.78	0.492	0.46	0.504	0.756	0.456	0.554	0.837	0.586	0.758	0.408
0.794	6.24	7.8	LTERGYSFVTT [ACTA1_Y200]	0.796	0.708	1.17	0.95	0.657	0.927	1.1	0.582	0.823	1.4	0.941	1.41	0.769
0.89	0.906	0.692	LTSKPYAFTAQ [NDUFS1_Y236_R241Q]	0.469	0.363	0.371	0.471	0.345	0.445	0.625	0.489	0.524	0.542	0.521	0.696	0.411
3.76	4.03	2.03	LTVVIYVLVGR [EPHA3_Y561_I564V]	0.26	0.168	0.44	0.251	0.183	0.54	0.391	1.12	0.348	1.16	0.81	0.63	0.479
1.58	2.64	1.44	LVMFFYAIFGM [SCN1A_Y1684_I1683F]	0.608	0.446	1.34	0.566	0.524	0.898	1.06	0.789	0.708	1.35	0.937	1.23	0.84
1.39	0.842	0.893	LVMFISAIFGM [SCN1A_Y1684_Y1684S]	1.1	0.804	1.46	1.07	0.922	1.15	1.77	0.788	1.33	1.69	1.36	2.05	0.722
0.9	0.565	0.571	LYEDHYLLGTS [ASS1_Y87_R86H]	12.3	1.19	0.972	3.05	2.73	0.689	2.17	1.86	16.1	1.66	1.1	1.37	2.08
0.828	0.701	0.522	LYSGDCYRIQG [DDR2_Y740_Y740C]	1.8	1.16	1.11	1.3	1.22	0.956	1.04	1.18	0.73	1.05	0.808	1.18	6.98
1.54	2.6	1.31	LYSINYLHFGE [KDM4C_Y201]	10.7	3.5	3.52	9.01	2.56	3.6	1.1	3.5	11.1	2.05	2.08	1.57	11
0.904	0.671	1.79	MASTSYDYCRV [BST2_Y6]	4.88	0.905	0.851	3.51	0.577	1.27	0.687	0.481	2.69	1.11	0.956	0.68	0.904
0.766	0.713	0.98	MAYDRYVAICS [OR8D4_Y123_C120Y]	1.28	0.745	0.753	2.12	0.762	0.603	1.15	0.486	0.547	1.01	1.03	1.01	0.77
0.897	1.08	0.957	MCITQYKRESQ [PRNP_Y218_E219K]	0.384	0.433	0.606	0.587	0.42	0.443	0.736	0.519	0.501	0.875	0.454	0.837	0.475

Sequence	SH2 binding enrichment [1]	SH2 binding enrichment [2]	SH2 binding enrichment [3]	phosphorylation enrichment [4]	phosphorylation enrichment [5]	phosphorylation enrichment [6]	phosphorylation enrichment [7]	phosphorylation enrichment [8]	phosphorylation enrichment [9]	phosphorylation enrichment [10]	phosphorylation enrichment [11]	phosphorylation enrichment [12]	phosphorylation enrichment [13]	phosphorylation enrichment [14]	phosphorylation enrichment [15]	phosphorylation enrichment [16]
LYSGDYYRIQG [DDR2_Y740]	1.02	0.531	0.984	29.2	10.4	26	30.3	10.5	32.7	23.8	11.5	1.81	7.93	7.77	1.83	19.3
